Results on one protein are retold here after US20240158769A1 (RHEINISCH WESTF LISCHE TECHNISCHE HOCHSCHULE RWTH AACHEN, published 2024).

The data set deals with the molecule itself. As to the kind of experiment: size exclusion chromatography against protein standards (peaks at 80 kDa and 50 kDa; data not shown).

B1: Phytase chimera PTRec 77 (enzyme)
chain: SDTAPAGFQLERVVILSRHGVRAPTKMTQTMRDVTPHQWPEWPVKLGYITPRGEHLISLMGGFYRERFQQQGLLPKDNCPTPDAVYVWADVDQRTRLTGQAFLDGIAPGCGLKVHYQADLEKVDPLFHPVEAGVCQLDSTQTHRAIEAQLGAPLSELSQRYAKPFAQMSEILNFTASPYCKSLQQQGKSCDFATFAANEVKVNQQGTKVSLSGPLALSSTLGEVFLLQEAQGMPQVAWGRITGEKEWRDLLSLHNAQFDLLQRTPYLAKHNGTPLLQTIAHALGSNITSRPLPDISPDNKILFIAGHDTNIANISGMLGMTWTLPGQPDNTPPGGALVFERWVDNAGKPYVSVNMVYQTLAQLHDQAPLTLQHPAGSVRLNIPGCSDQTPDGYCPLSTFSRLVSHSVEPACQLP
modifications: N-linked glycans, heterogeneous (hypermannosylation), from secretion by Pichia pastoris; sites not stated
notes: Recombinant chimera of phytase fragments from Hafnia alvei, Yersinia mollaretii and Citrobacter braakii; It was secreted by P. pastoris and purified; also called DJ 11
Regarding B1, the binding result is “no binding”.
